This passage reports Kd results from doi:10.1101/2021.11.29.470362 (bioRxiv, 2021).

The target in this assay is SARS-CoV-2 S-protein extracellular domain (ECD) (SARS-CoV-2, Wuhan-Hu-1 (ancestral), biotin, site-specific (BirA reaction) on the AviTag). In words: BLI. (BLI is a label-free optical method that tracks binding on a fibre tip over time.)

B1: IgG 15033 (antibody, V domains shown)
VH: EVQLVESGGGLVQPGGSLRLSCAASGFDLGGYSMHWVRQAPGKGLEWVAGIYASGGATAYADSVKGRFTISADTSKNTAYLQMNSLRAEDTAVYYCARSYYYGGFGMDYWGQGTLVTVSS
VL: DIQMTQSPSSLSASVGDRVTITCRASQSVSSAVAWYQQKPGKAPKLLIYSASDLYSGVPSRFSGSRSGTDFTLTISSLQPEDFATYYCQQSYRYPITFGQGTKVEIK
With B1, the Kd (as a rule, the equilibrium constant for the complex coming apart) came out at 0.1 nM.

B2: peptide-IgG 33^LN1 (peptide N1 fused to the N-terminus of the LC of IgG 15033) (antibody, V domains shown)
VH: EVQLVESGGGLVQPGGSLRLSCAASGFDLGGYSMHWVRQAPGKGLEWVAGIYASGGATAYADSVKGRFTISADTSKNTAYLQMNSLRAEDTAVYYCARSYYYGGFGMDYWGQGTLVTVSS
VL: DIQMTQSPSSLSASVGDRVTITCRASQSVSSAVAWYQQKPGKAPKLLIYSASDLYSGVPSRFSGSRSGTDFTLTISSLQPEDFATYYCQQSYRYPITFGQGTKVEIK
The molecule B2 had a Kd below 0.001 nM.

B3: peptide-IgG 33^HR1 (peptide R1 fused to the N-terminus of the HC of IgG 15033) (antibody, V domains shown)
VH: EVQLVESGGGLVQPGGSLRLSCAASGFDLGGYSMHWVRQAPGKGLEWVAGIYASGGATAYADSVKGRFTISADTSKNTAYLQMNSLRAEDTAVYYCARSYYYGGFGMDYWGQGTLVTVSS
VL: DIQMTQSPSSLSASVGDRVTITCRASQSVSSAVAWYQQKPGKAPKLLIYSASDLYSGVPSRFSGSRSGTDFTLTISSLQPEDFATYYCQQSYRYPITFGQGTKVEIK
In turn, B3 yielded a Kd below 0.001 nM.
